In patent US20260217779A1 (Chugai, published 2026):
Changes are numbered by the printed parent chain. Names may count otherwise. Values belong to the binder of their own block, whether it stands above or below them.

Target: T1, human CXCR3 (hCXCR3) on Ba/F3 transfectant cells (human, UniProt P49682 1-368)
T1 sequence: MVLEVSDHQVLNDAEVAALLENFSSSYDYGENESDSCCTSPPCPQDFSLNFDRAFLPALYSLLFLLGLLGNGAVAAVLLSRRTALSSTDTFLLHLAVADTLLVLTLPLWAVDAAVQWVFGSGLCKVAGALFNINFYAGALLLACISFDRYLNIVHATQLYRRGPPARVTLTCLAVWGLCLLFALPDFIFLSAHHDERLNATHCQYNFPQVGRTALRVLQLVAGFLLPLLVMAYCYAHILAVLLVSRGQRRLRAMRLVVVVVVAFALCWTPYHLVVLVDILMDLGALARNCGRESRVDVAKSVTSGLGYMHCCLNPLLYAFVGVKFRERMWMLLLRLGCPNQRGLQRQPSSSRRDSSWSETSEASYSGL
Experiment: cell-based or functional assay

Activity retention rate at 33 nM: 8% | Activity retention rate at 100 nM: 33% | Activity retention rate at 300 nM: 59% | Luminescence value at 33 nM: 643000 | Luminescence value at 100 nM: 5.57e+06 | Luminescence value at 300 nM: 7.33e+06
B1: hCXCL11.0056-G1T4k.one//VHn-G1T4h.one.H435R (Fc fusion)
chain 1: FVPMFKRGRCLCIGPGVKAVKVADIEKASIMYPSNNCDKIEVIITLKENKGQRCLNPKSKQARLIIKKVERKNFEPKSSDKTHTCPPCPAPELRRGPSVFLFPPKPKDTLMISRTPEVTCVVVDVSHEDPEVKFNWYVDGVEVHNAKTKPREEQYNSTYRVVSVLTVLHQDWLNGKEYKCKVSNKGLPSSIEKTISKAKGQPREPQVCTLPPSREEMTKNQVSLWCLVKGFYPSDIAVEWESNGQPENNYKTTPPVLDSDGSFFLYSKLTVDKSRWQEGNVFSCSVMHEALHNHYTQKSLSLSP
chain 2: EPKSSDKTHTCPPCPAPELRRGPSVFLFPPKPKDTLMISRTPEVTCVVVDVSHEDPEVKFNWYVDGVEVHNAKTKPREEQYNSTYRVVSVLTVLHQDWLNGKEYKCKVSNKGLPSSIEKTISKAKGQPREPQVYTLPPSRCEMTKNQVSLSCAVKGFYPSDIAVEWESNGQPENNYKTTPPVLDSDGSFFLVSKLTVDKSRWQEGNVFSCSVMHEALHNRYTQKSLSLSP

Activity retention rate at 33 nM: 15% | Activity retention rate at 100 nM: 42% | Activity retention rate at 300 nM: 84% | Luminescence value at 33 nM: 1.12e+06 | Luminescence value at 100 nM: 7.07e+06 | Luminescence value at 300 nM: 1.04e+07
B2: hCXCL11.0058-G1T4k.one//VHn-G1T4h.one.H435R (Fc fusion)
chain 1: B1 chain 1 with V2Y
chain 2: B1 chain 2

Activity retention rate at 33 nM: 7% | Activity retention rate at 100 nM: 37% | Activity retention rate at 300 nM: 86% | Luminescence value at 33 nM: 501000 | Luminescence value at 100 nM: 6.21e+06 | Luminescence value at 300 nM: 1.07e+07
B3: hCXCL11.0057-G1T4k.one//VHn-G1T4h.one.H435R (Fc fusion)
chain 1: B1 chain 1 with V2W
chain 2: B1 chain 2
